# Measured values as given in patent publication US20240043504A1 (published 2024).
# Like-named read-outs stand apart in the source and are kept apart here.
# T1: MERS-CoV (NCoV/Novel coronavirus) Spike Protein (ECD, aa 1-1297, His Tag) (Sino 40069-[change]) (MERS-CoV, UniProt K9N5Q8 18-1297)
# T1 sequence: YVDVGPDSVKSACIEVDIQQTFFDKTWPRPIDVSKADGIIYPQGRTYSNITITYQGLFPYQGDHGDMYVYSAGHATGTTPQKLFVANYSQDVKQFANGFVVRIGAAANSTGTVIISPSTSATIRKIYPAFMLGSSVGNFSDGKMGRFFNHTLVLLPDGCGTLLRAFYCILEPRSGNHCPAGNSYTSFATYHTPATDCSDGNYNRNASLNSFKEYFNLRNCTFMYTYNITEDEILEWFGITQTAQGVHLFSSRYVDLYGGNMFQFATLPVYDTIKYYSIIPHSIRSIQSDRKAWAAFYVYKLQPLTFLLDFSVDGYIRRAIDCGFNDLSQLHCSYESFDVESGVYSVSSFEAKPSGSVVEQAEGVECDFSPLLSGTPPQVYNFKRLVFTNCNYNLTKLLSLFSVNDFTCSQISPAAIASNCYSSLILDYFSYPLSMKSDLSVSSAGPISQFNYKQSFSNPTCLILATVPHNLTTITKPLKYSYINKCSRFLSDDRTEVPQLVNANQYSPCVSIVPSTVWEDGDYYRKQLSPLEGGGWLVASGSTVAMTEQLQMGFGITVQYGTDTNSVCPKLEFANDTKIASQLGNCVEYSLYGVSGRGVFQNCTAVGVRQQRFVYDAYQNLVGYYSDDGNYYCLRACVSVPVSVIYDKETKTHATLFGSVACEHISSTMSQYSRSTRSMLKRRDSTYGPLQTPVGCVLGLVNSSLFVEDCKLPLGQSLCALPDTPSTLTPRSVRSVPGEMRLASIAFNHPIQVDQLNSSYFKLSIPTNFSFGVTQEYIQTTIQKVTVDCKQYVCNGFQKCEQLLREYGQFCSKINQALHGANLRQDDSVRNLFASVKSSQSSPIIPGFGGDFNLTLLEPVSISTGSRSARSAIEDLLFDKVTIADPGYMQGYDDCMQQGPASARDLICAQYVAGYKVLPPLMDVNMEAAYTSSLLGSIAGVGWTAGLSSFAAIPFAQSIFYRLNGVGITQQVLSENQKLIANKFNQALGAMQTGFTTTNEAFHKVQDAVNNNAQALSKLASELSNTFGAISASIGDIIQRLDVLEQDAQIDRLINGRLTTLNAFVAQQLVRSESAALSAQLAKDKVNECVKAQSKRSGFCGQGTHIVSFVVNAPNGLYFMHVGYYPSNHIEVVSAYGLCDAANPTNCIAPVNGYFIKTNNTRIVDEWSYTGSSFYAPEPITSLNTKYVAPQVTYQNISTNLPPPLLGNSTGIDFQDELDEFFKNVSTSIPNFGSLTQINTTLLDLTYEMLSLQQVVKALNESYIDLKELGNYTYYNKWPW
# T2: MERS-CoV (NCoV/Novel coronavirus) Spike Protein S2 (aa 726-1296, His Tag) (Sino 40070-[change]) (MERS-CoV, UniProt K9N5Q8 726-1296)
# T2 sequence: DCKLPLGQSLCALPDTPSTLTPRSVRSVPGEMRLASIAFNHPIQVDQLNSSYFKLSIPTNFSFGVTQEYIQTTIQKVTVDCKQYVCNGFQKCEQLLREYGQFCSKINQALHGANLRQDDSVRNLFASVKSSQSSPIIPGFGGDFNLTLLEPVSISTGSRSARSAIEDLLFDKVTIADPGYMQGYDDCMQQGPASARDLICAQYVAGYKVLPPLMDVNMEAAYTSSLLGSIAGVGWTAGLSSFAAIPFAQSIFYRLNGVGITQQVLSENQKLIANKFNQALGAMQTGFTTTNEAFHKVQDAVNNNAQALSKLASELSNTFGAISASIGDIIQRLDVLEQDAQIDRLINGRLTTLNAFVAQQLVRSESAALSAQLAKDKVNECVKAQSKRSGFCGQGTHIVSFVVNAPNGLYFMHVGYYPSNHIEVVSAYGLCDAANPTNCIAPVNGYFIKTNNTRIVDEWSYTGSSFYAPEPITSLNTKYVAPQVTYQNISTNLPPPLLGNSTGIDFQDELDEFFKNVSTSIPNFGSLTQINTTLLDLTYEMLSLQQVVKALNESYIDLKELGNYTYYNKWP
# T3: MERS-CoV (NCoV/Novel coronavirus) Spike Protein fragment (RBD, aa 367-606, His Tag) (Sino 40071-V08B1) (MERS-CoV, UniProt K9N5Q8 367-606)
# T3 sequence: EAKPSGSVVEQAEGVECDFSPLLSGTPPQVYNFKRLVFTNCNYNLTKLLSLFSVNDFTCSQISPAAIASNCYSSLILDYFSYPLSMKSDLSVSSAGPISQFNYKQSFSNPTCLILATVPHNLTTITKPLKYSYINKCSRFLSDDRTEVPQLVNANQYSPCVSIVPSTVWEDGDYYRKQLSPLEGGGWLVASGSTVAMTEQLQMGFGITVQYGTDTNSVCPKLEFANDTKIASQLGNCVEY
# B1: mAb10970 (antibody, V domains shown)
# VH: EVQLVESGGGLVQPGGSLRLSCAASGFTVSSNYMSWVRQAPGKGLEWVSVIYSGGSTYYADSVKGRFTISRDNSKNTLYLQMNRLRADDTAVYYCVRDPVGRYYYGMDVWGQGTTVTVSS
# VL: not shown
# B2: mAb11010 (antibody, V domains shown)
# VH: QVQLVESGGGVVQPGRSLRLSCAASGFTFSSYGMHWVRQAPGKGLEWVAVISYDGSYKYYADSVKGRFTISRDNSKNTLYLQMNSLRAEDTAVYYCAIDGGTVTTIFDYWGQGTLVTVSS
# VL: not shown
# B3: mAb10955 (antibody, V domains shown)
# VH: EVQLVESGGGLVQPGGSLRVSCAASGFTVSRNYMSWVRQAPGKGLEWVSVIYSGGSTFYADSVKGRFTISRDNSKNTLYLQMNSLRAEDTAIYYCARYIPRFDPWGQGTLVTVSS
# VL: DIQMTQSPSSLSASVGDRVTITCQASQDISNYLNWFQQKPGRAPKLLIYDASNLETGVPSRFSGSGSGTDFTFTISSLQPEDIATYYCQQYDNLPITFGQGTRLEIKR
# B4: mAb10998 (antibody, V domains shown)
# VH: EVQLVESGGGLVHPGGSLRLSCAASGLTVSSNYMSWVRQAPGKGLEWVSVIYSGGSTYYADSVKGRFTISRHNSKNTLFLQMNSLRAEDTAVYYCARDRPITGTTLDVWGQGTTVTVSS
# VL: DIQMTQSPSSLFASVGDRVTITCRASQSISSYLNWYQQKPGKAPKLLIYAASSLQSGVPSRFSGSGSGTDFTLTISSLQPEDFAFYYCQQTYSTPPITFGQGTRLEIK
# B5: mAb10969 (antibody, V domains shown)
# VH: QVQLVESGGGVVQPGRSLRLSCAASGFTFSSYAMHWVRQAPGKGLEWVAVISYDGSNKYYADSVKGRFTISRDNSKNTLYLQMNSLRAEDTAVYYCARDGRTITMVRGVIDDAFDIWGQGTMVTVSS
# VL: not shown
# B6: mAb10987 (antibody, V domains shown)
# VH: QVQLVESGGGVVQPGRSLRLSCAASGFTFSNYAMYWVRQAPGKGLEWVAVISYDGSNKYYADSVKGRFTISRDNSKNTLYLQMNSLRTEDTAVYYCASGSDYGDYLLVYWGQGTLVTVSS
# VL: QSALTQPASVSGSPGQSITISCTGTSSDVGGYNYVSWYQQHPGKAPKLMIYDVSKRPSGVSNRFSGSKSGNTASLTISGLQSEDEADYYCNSLTSISTWVFGGGTKLTVLG
# B7: mAb10971 (antibody, V domains shown)
# VH: EVQLVESGGGLIQPGGSLRLSCAASGVTVSSNYMSWVRQAPGKGLEWVSVIYSGGSTFYSDSVKGRFSISRDNSKNTLYLQMNSLRAEDTAVYYCARDLYYYGMDVWGQGTTVTVSS
# VL: DIQLTQSPSFLSASVGDRVTITCRASQGISTYLAWYQQKPGKAPKLLIYAASTLQSGVPSRFSGSGSGTEFTLTISSLQPEDFATYYCQQLDSYPGLTFGGGTKVEIKR
# B8: mAb11000 (antibody, V domains shown)
# VH: EVQLVESGGGLVQPGGSLRLSCAASGFTVSSNYMNWVRQAPGKGLEWVSVIYSGGSTFYADSVRGRFTISRHNSKNTLYLQMNSLRAEDTAVYYCARDGSAYGMDVWGQGTTVTVSS
# VL: not shown
# B9: mAb10964 (antibody, V domains shown)
# VH: QVQLQESGPGLVKPSETLSLTCTVSGGSINNYYWIWIRQPPGKGLEWIGYIYHSGSTNYNPSLKSRVTISVDTSKNQFSLKVSSVTAADTAVYYCANMVRGVYEDDYWGQGTLVTVSS
# VL: DIQMTQSPSSLSASVGDRVTITCRASQSISNYLNWYQQKPGKAPKLLIFAASSLRSGVPSRFSGSGSGTDFTLTISSLHPEDFATYYCQQNYNTPLTFGPGTKVDIKR
# B10: mAb11002 (antibody, V domains shown)
# VH: EVQLVESGGGLVQPGGSLRLSCAASGFTVSSNYMSWVRQAPGKGLEWVSVIYSGGSTFYADSVKGRFTISRHNSKNTLYLQMNSLRAEDTAVYYCAREGYGMDVWGQGTTVTVSS
# VL: not shown
# How the values were obtained:
# Experiment in all cases: Luminex bead binding, supernatant
# [1] = molecular target: T1, MERS-CoV (NCoV/Novel coronavirus) Spike …
# [2] = molecular target: T2, MERS-CoV (NCoV/Novel coronavirus) Spike …
# [3] = molecular target: T3, MERS-CoV (NCoV/Novel coronavirus) Spike …
# [4] = molecular target: SARS-CoV-2 Spike Protein (RBD)(R319-F541).mFc (mAb10621-L1) (SARS-CoV-2)
# [5] = molecular target: T4, Human SARS Coronavirus Spike S1 Subunit Protein (His Tag) (Sino 40150-V08B1) (Human SARS Coronavirus, UniProt P59594 14-667)
# [6] = molecular target: SARS-CoV-2 Spike Protein (RBD)(R319-F541).hFc (mAb10622-L1) (SARS-CoV-2)
# [7] = molecular target: Bt-SARS-CoV-2 Spike Protein (RBD)(R319-F541).mFc (mAb10621-L2) (SARS-CoV-2)
# [8] = molecular target: T4, Human SARS Coronavirus Spike S1 Subunit …; remark: listed apart in the source
# [9] = molecular target: T3, MERS-CoV (NCoV/Novel coronavirus) Spike …; remark: listed apart in the source
Binder,Binding signal (MFI) [1] [MFI],Binding signal (MFI) [2] [MFI],Binding signal (MFI) [3] [MFI],Binding signal (MFI) [4] [MFI],Binding signal (MFI) [5] [MFI],Binding signal (MFI) [6] [MFI],Binding signal (MFI) [7] [MFI],Binding signal (MFI) [8] [MFI],Binding signal (MFI) [9] [MFI]
B1,14,16,23,,,,,,
B2,,,,14400,7420,8880,9350,,
B3,15,18,20,,,,,14,
B4,,,,2230,16,1740,2230,,
B5,16,20,26,,,,,20,
B6,15,23,,,,,,,
B7,15,13,20,,,,,20,
B8,,,,,,,,,27
B9,15,,20,,,,,5190,
B10,,,,9530,31,9380,2200,,
